Source: publication PMC6522503

Assays:
CDK2 = CDK2 (UniProt P24941); assay: anti-HA co-IP, anti-FLAG blot; details: reference: wild type p21; sites T55
CDK4 = CDK4 (UniProt P11802); assay: anti-HA co-IP, anti-FLAG blot; details: reference: wild type p21; sites T55

Substance: p21 (from UniProt P38936) T55A p21
- binding against the reference (CDK2): weaker
- binding against the reference (CDK4): weaker
